The labels stand for the following.
B1: COM22-V1 BCMA specific CAR (protein)
chain: EVQLLESGGGLVQPGGSLRLSCAASGFTFSSYAMNWVRQAPGKGLEWVSAISDSGGSRWYADSVKGRFTISRDNSKNTLYLQMNSLRAEDTAVYYCTRYWPMDIWGQGTLVTVSSGGGGSGGGGSGGGGSEIVLTQSPGTLSLSPGERATLSCRASVRVSSTYLAWYQQKPGQAPRLLMYDASIRATGIPDRFSGSGSGTDFTLTISRLEPEDFAVYYCQQYMKWPLTFGQGTKVEIKGLAVSTISSFFPPGYQIYIWAPLAGTCGVLLLSLVITLYCKRGRKKLLYIFKQPFMRPVQTTQEEDGCSCRFPEEEEGGCELRVKFSRSADAPAYQQGQNQLYNELNLGRREEYDVLDKRRGRDPEMGGKPRRKNPQEGLYNELQKDKMAEAYSEIGMKGERRRGKGHDGLYQGLSTATKDTYDALHMQALPPR
B2: P5A-V1 BCMA specific CAR (protein)
chain: B1 chain with R58T, W59Y, T97A, V157Q, R158S, T162S, M223G, K224S
B3: P5AC16-V1 BCMA specific CAR (protein)
chain: B1 chain with S54F, R58T, W59Y, T97A, V157Q, R158S, S161D, T162L, M223Q, K224T
B4: PC1C12-V1 BCMA specific CAR (protein)
chain: EVQLLESGGGLVQPGGSLRLSCAASGFTFSSYPMSWVRQAPGKGLEWVSAIGGSGGWSYYADSVKGRFTISRDNSKNTLYLQMNSLRAEDTAVYYCARYWPMDSWGQGTLVTVSSGGGGSGGGGSGGGGSEIVLTQSPGTLSLSPGERATLSCWLSQSVSSTYLAWYQQKPGQAPRLLIYDASSRAPGIPDRFSGSGSGTDFTLTISRLEPEDFAVYYCQQYSEWPLTFGQGTKVEIKGLAVSTISSFFPPGYQIYIWAPLAGTCGVLLLSLVITLYCKRGRKKLLYIFKQPFMRPVQTTQEEDGCSCRFPEEEEGGCELRVKFSRSADAPAYQQGQNQLYNELNLGRREEYDVLDKRRGRDPEMGGKPRRKNPQEGLYNELQKDKMAEAYSEIGMKGERRRGKGHDGLYQGLSTATKDTYDALHMQALPPR
B5: PC1-V1 BCMA specific CAR (protein)
chain: B4 chain with W57S, S58T, W154R, L155A, E224T, W225S
B6: P5AC1-V1 BCMA specific CAR (protein)
chain: EVQLLESGGGLVQPGGSLRLSCAASGFTFSSYAMNWVRQAPGKGLEWVSAILSSGGSTYYADSVKGRFTISRDNSKNTLYLQMNSLRAEDTAVYYCARYWPMDIWGQGTLVTVSSGGGGSGGGGSGGGGSEIVLTQSPGTLSLSPGERATLSCRGGQSVSSSYLAWYQQKPGQAPRLLMYDASIRATGIPDRFSGSGSGTDFTLTISRLEPEDFAVYYCQQYQSWPLTFGQGTKVEIKGLAVSTISSFFPPGYQIYIWAPLAGTCGVLLLSLVITLYCKRGRKKLLYIFKQPFMRPVQTTQEEDGCSCRFPEEEEGGCELRVKFSRSADAPAYQQGQNQLYNELNLGRREEYDVLDKRRGRDPEMGGKPRRKNPQEGLYNELQKDKMAEAYSEIGMKGERRRGKGHDGLYQGLSTATKDTYDALHMQALPPR

Numbering of substitutions follows the chain as printed. In names and notes the source's numbering stands.

human BCMA (B-cell maturation antigen) (human), sequence (Q02223 other isoform, or with tags, fused parts or gaps): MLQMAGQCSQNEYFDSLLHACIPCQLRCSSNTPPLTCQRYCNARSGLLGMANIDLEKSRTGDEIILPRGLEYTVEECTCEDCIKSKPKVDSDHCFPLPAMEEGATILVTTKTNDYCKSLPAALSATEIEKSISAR

This assay addresses human BCMA (B-cell maturation antigen) (human) (UniProt Q02223). Briefly: cell-based or functional assay.
As to B1, the % CD107a+ (in CD8+) (degranulation, CAR-T cells with MM1S cells, Donor 3) was 76.1% and the MFI CD107a+ (degranulation, CAR-T cells with MM1S cells, Donor 3) amounted to 2220 MFI.

Molecule B2 yielded a % CD107a+ (in CD8+) (degranulation, CAR-T cells with MM1S cells, Donor 2) of 77.6% and an MFI CD107a+ (degranulation, CAR-T cells with MM1S cells, Donor 2) of 2670 MFI.

Molecule B3 gave a % CD107a+ (in CD8+) (degranulation, CAR-T cells with MM1S cells, Donor 2) of 61.6% and an MFI CD107a+ (degranulation, CAR-T cells with MM1S cells, Donor 2) of 1860 MFI.

In turn, B4 gave a % CD107a+ (in CD8+) (degranulation, CAR-T cells with MM1S cells, Donor 3) of 68.2% and an MFI CD107a+ (degranulation, CAR-T cells with MM1S cells, Donor 3) of 1960 MFI.

B5 had a % CD107a+ (in CD8+) (degranulation, CAR-T cells with MM1S cells, Donor 3) of 75.6% and an MFI CD107a+ (degranulation, CAR-T cells with MM1S cells, Donor 3) of 2180 MFI.

In the case of B6, the % CD107a+ (in CD8+) (degranulation, CAR-T cells with MM1S cells, Donor 2) is 68.6% and the MFI CD107a+ (degranulation, CAR-T cells with MM1S cells, Donor 2) came out at 2190 MFI.
